We go through 15 molecules from patent US20260274985A1 (MYTHIC THERAPEUTICS, published 2026).

The chains are these.
T1: Human TROP2 Protein, His Tag (Acro Biosystems) (human, UniProt P09758 27-274)
T1 construct: not shown: His tag
T1 sequence (looked up): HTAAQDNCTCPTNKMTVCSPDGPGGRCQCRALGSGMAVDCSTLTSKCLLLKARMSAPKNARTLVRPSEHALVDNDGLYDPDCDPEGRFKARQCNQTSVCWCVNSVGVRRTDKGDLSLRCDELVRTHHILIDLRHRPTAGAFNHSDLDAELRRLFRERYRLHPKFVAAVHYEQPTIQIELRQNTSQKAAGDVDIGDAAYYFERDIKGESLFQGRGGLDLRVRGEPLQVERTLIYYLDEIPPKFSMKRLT

T2: Human TROP2 Protein, His Tag (Acro Biosystems) (human, UniProt P09758 27-274)
T2 construct: also called TACSTD2; not shown: His tag
T2 sequence (looked up): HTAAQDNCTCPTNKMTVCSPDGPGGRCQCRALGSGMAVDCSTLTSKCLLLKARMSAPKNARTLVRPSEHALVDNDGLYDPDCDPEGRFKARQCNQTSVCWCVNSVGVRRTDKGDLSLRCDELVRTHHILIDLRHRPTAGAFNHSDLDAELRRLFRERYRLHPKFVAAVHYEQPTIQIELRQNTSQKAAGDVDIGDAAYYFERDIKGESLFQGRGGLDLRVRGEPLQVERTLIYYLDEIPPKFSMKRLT

B1: MYT13271 (antibody, V domains shown)
VH: QVQLVQSGAEVKKPGASVKVSCKASGYTFTTAGMQWVRQAPGQGLEWMGWINTHSGVPKYAEDFKGRVTISADTSTSTAYLQLSSLKSEDTAVYYCARSGFGSHYWYFDVWGQGTLVTVSS
VL: DIQMTQSPSSLSASVGDRVTITCKASQDVSTAVAWYQQKPGKAPKLLIYSASYRYTGVPSRFSGSGSGTDFTLTISSLQPEDFAVYYCQHHYITPLTFGQGTKLEIK
notes: Full-length IgG from Expi293 supernatant; also called datopotamab heavy chain and light chain pairing variant
B2: MYT13269 (antibody, V domains shown)
VH: QVQLVQSGAEVKKPGASVKVSCKASGYTFTTAGMQWVRQAPGQGLEWMGWINTHSGVPKYAEDFKGRVTISADTSTSTAYLQLSSLKSEDTAVYYCAHSGFGSSYWYFDVWGQGTLVTVSS
VL: DIQMTQSPSSLSASVGDRVTITCKASQDVSTAVAWYQQKPGKAPKLLIYSASYRYTGVPSRFSGSGSGTDFTLTISSLQPEDFAVYYCQHHYITPLTFGQGTKLEIK
notes: as for B1
B3: MYT13270 (antibody, V domains shown)
VH: QVQLVQSGAEVKKPGASVKVSCKASGYTFTTAGMQWVRQAPGQGLEWMGWINTHSGVPKYAEDFKGRVTISADTSTSTAYLQLSSLKSEDTAVYYCARSGHGSSYWYFDVWGQGTLVTVSS
VL: DIQMTQSPSSLSASVGDRVTITCKASQDVSTAVAWYQQKPGKAPKLLIYSASYRYTGVPSRFSGSGSGTDFTLTISSLQPEDFAVYYCQHHYITPLTFGQGTKLEIK
notes: as for B1
B4: MYT13262 (antibody, V domains shown)
VH: QVQLVQSGAEVKKPGASVKVSCKASGYTFTTAGMQWVRQAPGQGLEWMGWINTHSGVPKYAEDFKGRVTISADTSTSTAYLQLSSLKSEDTAVYYCARSGHGSSYWYFDVWGQGTLVTVSS
VL: DIQMTQSPSSLSASVGDRVTITCKASQDVSTAVAWYQQKPGKAPKLLIYSAHYRYTGVPSRFSGSGSGTDFTLTISSLQPEDFAVYYCQQHYITPLTFGQGTKLEIK
notes: as for B1
B5: MYT13261 (antibody, V domains shown)
VH: QVQLVQSGAEVKKPGASVKVSCKASGYTFTTAGMQWVRQAPGQGLEWMGWINTHSGVPKYAEDFKGRVTISADTSTSTAYLQLSSLKSEDTAVYYCAHSGFGSSYWYFDVWGQGTLVTVSS
VL: DIQMTQSPSSLSASVGDRVTITCKASQDVSTAVAWYQQKPGKAPKLLIYSAHYRYTGVPSRFSGSGSGTDFTLTISSLQPEDFAVYYCQQHYITPLTFGQGTKLEIK
notes: as for B1
B6: MYT13280 (antibody, V domains shown)
VH: QVQLQESGPGLVKPSETLSLTCTVSGGSISSYGVHWIRQPPGKGLEWIGVIWTSGVTDYNSALMGRVTISVDTSKNQFSLKLSSVTAADTAVYYCARDGDYDRYTHDYWGQGTLVTVSS
VL: DIVMTQSPDSLAVSLGERATINCRASKSVSTSGYSYMHWYQQKPGQPPKLLIYLASNLHSGVPDRFSGSGSGTDFTLTISSLQAEDVAVYYCQHSRELPYTFGQGTKLEIK
notes: Full-length IgG from Expi293 supernatant; also called hu7E6SVG heavy chain and light chain pairing variant
B7: MYT13304 (antibody, V domains shown)
VH: QVQLQESGPGLVKPSETLSLTCTVSGGSISSYGVHWIRQPPGKGLEWIGVIWTSGVTDYNSALMGRVTISVDTSKNQFSLKLSSVTAADTAVYYCARDGDYDHYTMDYWGQGTLVTVSS
VL: DIVMTQSPDSLAVSLGERATINCRASKSVSTSGYSYMHWYQQKPGQPPKLLIYLASNLESGVPDRFSGSGSGTDFTLTISSLQAEDVAVYYCQHSRELPYHFGQGTKLEIK
notes: as for B6
B8: MYT13408 (antibody, V domains shown)
VH: QVQLQQSGSELKKPGASVKVSCKASGYTFTNYGMNWVKQAPGQGLKWMGWINTYTGEPTHTDDFKGRFAFSLDTSVSTAYLQISSLKADDTAVYFCARGGFGSSYWYFDVWGQGSLVTVSS
VL: DIQLTQSPSSLSASVGDRVSITCKASQDVSIAVAWYQQKPGKAPKLLIYSHHYRYTGVPDRFSGSGSGTDFTLTISSLQPEDFAVYYCQQHYITPLTFGAGTKVEIK
notes: Sacituzumab HC-LC pairing variant
B9: MYT13430 (antibody, V domains shown)
VH: QVQLQQSGSELKKPGASVKVSCKASGYTFTNHGMNWVKQAPGQGLKWMGWINTYTGEPTYTDDFKGRFAFSLDTSVSTAYLQISSLKADDTAVYFCARGGFGSSYWYFDVWGQGSLVTVSS
VL: DIQLTQSPSSLSASVGDRVSITCKASQDVSIAVAWYQQKPGKAPKLLIYSHSHRYTGVPDRFSGSGSGTDFTLTISSLQPEDFAVYYCQQHYHTPLTFGAGTKVEIK
notes: as for B8
B10: MYT13409 (antibody, V domains shown)
VH: QVQLQQSGSELKKPGASVKVSCKASGYTFTNYGMNWVKQAPGQGLKWMGWINTYTGEPTYTHDFKGRFAFSLDTSVSTAYLQISSLKADDTAVYFCARGGFGSSYWYFDVWGQGSLVTVSS
VL: DIQLTQSPSSLSASVGDRVSITCKASQDVSIAVAWYQQKPGKAPKLLIYSHHYRYTGVPDRFSGSGSGTDFTLTISSLQPEDFAVYYCQQHYITPLTFGAGTKVEIK
notes: as for B8
B11: MYT13412 (antibody, V domains shown)
VH: QVQLQQSGSELKKPGASVKVSCKASGYTFTNYGMNWVKQAPGQGLKWMGWINTYTGEPTYTDDFHGRFAFSLDTSVSTAYLQISSLKADDTAVYFCARGGFGSSYWYFDVWGQGSLVTVSS
VL: DIQLTQSPSSLSASVGDRVSITCKASQDVSIAVAWYQQKPGKAPKLLIYSHHYRYTGVPDRFSGSGSGTDFTLTISSLQPEDFAVYYCQQHYITPLTFGAGTKVEIK
notes: as for B8
B12: MYT13414 (antibody, V domains shown)
VH: QVQLQQSGSELKKPGASVKVSCKASGYTFTNHGMNWVKQAPGQGLKWMGWINTYTGEPTYTDDFKGRFAFSLDTSVSTAYLQISSLKADDTAVYFCARGGFGSSYWYFDVWGQGSLVTVSS
VL: DIQLTQSPSSLSASVGDRVSITCKASQDVHIAVAWYQQKPGKAPKLLIYSHSYRYTGVPDRFSGSGSGTDFTLTISSLQPEDFAVYYCHQHYITPLTFGAGTKVEIK
notes: as for B8
B13: MYT13423 (antibody, V domains shown)
VH: QVQLQQSGSELKKPGASVKVSCKASGYTFTNYHMNWVKQAPGQGLKWMGWINTYTGEPTYTDDFKGRFAFSLDTSVSTAYLQISSLKADDTAVYFCARGGFGSSYWYFDVWGQGSLVTVSS
VL: DIQLTQSPSSLSASVGDRVSITCKASQDVHIAVAWYQQKPGKAPKLLIYSHSYRYTGVPDRFSGSGSGTDFTLTISSLQPEDFAVYYCQQHYHTPLTFGAGTKVEIK
notes: as for B8
B14: MYT13410 (antibody, V domains shown)
VH: QVQLQQSGSELKKPGASVKVSCKASGYTFTNYGMNWVKQAPGQGLKWMGWINTYTGEPTYTDHFKGRFAFSLDTSVSTAYLQISSLKADDTAVYFCARGGFGSSYWYFDVWGQGSLVTVSS
VL: DIQLTQSPSSLSASVGDRVSITCKASQDVSIAVAWYQQKPGKAPKLLIYSHHYRYTGVPDRFSGSGSGTDFTLTISSLQPEDFAVYYCQQHYITPLTFGAGTKVEIK
notes: as for B8
B15: MYT13411 (antibody, V domains shown)
VH: QVQLQQSGSELKKPGASVKVSCKASGYTFTNYGMNWVKQAPGQGLKWMGWINTYTGEPTYTDDHKGRFAFSLDTSVSTAYLQISSLKADDTAVYFCARGGFGSSYWYFDVWGQGSLVTVSS
VL: DIQLTQSPSSLSASVGDRVSITCKASQDVSIAVAWYQQKPGKAPKLLIYSHHYRYTGVPDRFSGSGSGTDFTLTISSLQPEDFAVYYCQQHYITPLTFGAGTKVEIK
notes: as for B8

In the first assay the target is T1, Human TROP2 Protein, His Tag (Acro …). Put plainly: BLI (Octet).
Take B1: the binding result is on record as “binds”.
Still for that read-out and setting: the result for B2 reads “binds”; that for B3, “binds”; that for B4, “binds”.
Same read-out and setting: the same measure for B5: “binds”; for B6: “binds”; for B7: “binds”.

A further assay addresses T2, Human TROP2 Protein, His Tag (Acro …). Put plainly: BLI (Octet) [2/2]. A general note: Biolayer interferometry detects binding as a change in optical thickness at a sensor tip.
B8: the binding result is “binds”.
Still for that read-out and setting: the same measure for B9: “binds”; for B10: “binds”.
Same read-out and setting: the result for B11 reads “binds”; that for B12, “binds”.
On to B13, for which the binding result is “binds”.
Same read-out and setting: the result for B14 reads “binds”.
The same measure, in the same setting: the same measure for B15: “binds”.
